Reference: publication PMC3335792, “M. tuberculosis Sliding β-Clamp Does Not Interact Directly with the NAD+ -Dependent DNA Ligase”

How the values were obtained:
[1] = biological target: T1, Mtb beta-clamp, OregonGreen488-labeled (Mycobacterium tuberculosis, UniProt P9WNU1 1-402); assay: fluorescence intensity titration (OregonGreen-labeled protein); apparent Kd; no Mg2+; 20 mM Tris-Cl pH 7.5, 1 mM DTT, 0.2 mM EDTA, 40 mM NaCl, 22 C, 200 or 500 nM labeled clamp; ex 490 nm, em 517 nm; details: protein: recombinant, tags: C-terminal 6xHis, OregonGreen488 maleimide, chain copies: 2, label: none in fluorescence assay, 32P in EMSA
T1 sequence: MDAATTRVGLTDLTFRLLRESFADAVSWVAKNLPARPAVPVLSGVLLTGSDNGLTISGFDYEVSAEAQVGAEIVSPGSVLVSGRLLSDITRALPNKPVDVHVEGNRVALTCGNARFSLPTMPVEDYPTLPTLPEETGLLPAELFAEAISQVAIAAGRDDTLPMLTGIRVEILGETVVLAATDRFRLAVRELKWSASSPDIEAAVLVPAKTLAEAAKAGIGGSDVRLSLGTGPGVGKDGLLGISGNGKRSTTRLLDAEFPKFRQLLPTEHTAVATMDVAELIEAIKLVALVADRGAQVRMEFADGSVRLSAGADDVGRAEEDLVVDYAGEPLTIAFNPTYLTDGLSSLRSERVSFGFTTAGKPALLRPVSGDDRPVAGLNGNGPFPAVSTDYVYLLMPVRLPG

[2] = biological target: T1, Mtb beta-clamp, OregonGreen488-labeled; assay: fluorescence intensity titration (OregonGreen-labeled protein); apparent Kd; abstract gives 300 nM; no Mg2+; 20 mM Tris-Cl pH 7.5, 1 mM DTT, 0.2 mM EDTA, 40 mM NaCl, 22 C, 200 or 500 nM labeled clamp; ex 490 nm, em 517 nm; details: protein: recombinant; tags: C-terminal 6xHis; OregonGreen488 maleimide; chain copies: 2; label: none in fluorescence assay; 32P in EMSA

B1: blunt duplex 18/18 (dsDNA)
DNA 1: CCCATCGTATAGCAAGGG
DNA 2: CCCTTGCTATACGATGGG
[1]; blunt
  Kd: 557 nM

B2: 18/28-mer primed template (mixed)
DNA 1: TTTTTTTTTTCCCTTGCTATACGATGGG
DNA 2: CCCATCGTATAGCAAGGG
[2]
  Kd: 326 nM

B3: nicked duplex (28-mer template + 18-mer + dA10) (dsDNA)
DNA 1: TTTTTTTTTTCCCTTGCTATACGATGGG
DNA 2: CCCATCGTATAGCAAGGG
DNA 3: AAAAAAAAAA
[1]; nicked duplex, 18-mer and 10-mer annealed to 28-mer, blunt ends
  Kd: 530 nM
